Measurements published in the supplement of paper PMC12042874.
± gives the uncertainty stated by the source.

Assay: amyloid nucleation score (Sup35N fusion, yeast selection) (log enrichment); library NNK2; higher = more nucleation; inactive = no reads after selection
Summary of the method: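 Peptides of 20 random codons fused to Sup35N were expressed in psi-negative yeast, induced 24 hours with 100 μM copper sulfate, then grown 7 days at 30°C on medium lacking adenine and uracil. Input and output plasmid inserts were Illumina-sequenced. Nucleation score is the DiMSum log enrichment of output over input reads, centred on the mode score of non-aggregating sequences, excluding sequences with under 100 input reads. Random libraries had three technical output replicates.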

Row | Substance | amyloid nucleation score
1 | ISSHVSCKSAFEAS | 0.395 ± 0.64
2 | RRTVQWVWAVYIV | -0.803 ± 0.45
3 | LLLVRFAPISV | -0.176 ± 1.1
4 | CWNDVIQKMVQYNTINFVLS | 4.88 ± 0.063
5 | RRMMRP | 2.2 ± 0.4
6 | RMVKLDDNVKYYVKSVEGYE | 0.276 ± 0.6
7 | LCYHLYTRVITCFLLIDLVC | -0.27 ± 1.1
8 | FWDRMGLNEEVFQGSLSSAW | inactive
9 | CRWDFVLWRFLCSIKKDWVT | -0.386 ± 0.79
10 | LRYRDASEALSYLCMQYDVI | 2.94 ± 0.05
11 | NKNVSTGWYCVIESI | 1.26 ± 0.6
12 | VLVKL | -1.17 ± 0.48
13 | GKYMEDYNAENQNPSTMMES | -0.01 ± 0.47
14 | NMTKRWMVCYHFFFKNYDLT | 0.207 ± 0.8
15 | VRGAVSLL | -0.64 ± 0.29
16 | LCVEELMTCVCWVRS | 0.47 ± 0.26
17 | TDLECKQLG | 1.88 ± 0.11
18 | TDHMHKISRVHRDKKMSVGF | -0.707 ± 1.1
19 | LGNRLSKIAVGTSFKLFKK | 0.138 ± 1.1
20 | QSTSQLRLYELSR | -0.206 ± 1.1
21 | MIQRFVISSGYRGFYLTLLI | inactive
22 | ILIMRKENGCLRELCFFCRA | inactive

Row | Substance | amyloid nucleation score
23 | HIICSRHSNEAKLRMKSKAI | -1.03 ± 0.61
24 | NTCRSYNRNVIIRARPRPGL | 5.14 ± 0.069
25 | IHNDCKLPMFVIMFS | 6 ± 0.082
26 | SHTSCGMKVSLRICHSMGQR | 6.434 ± 0.057
27 | EKLRNQFKP | -0.569 ± 1.1
28 | IDVLTQLNSFRMNFYVSANI | -0.868 ± 1.1
29 | MEPYRVKAMYPPRVIKVWFT | -0.448 ± 0.76
30 | SFPDSSRSKWIS | -0.775 ± 0.45
31 | DNCVIRALQRRNVLVV | -1.18 ± 0.39
32 | AFPLRTVISGN | 0.484 ± 0.8
33 | TYMWTSLEST | inactive
34 | LCKFFDTVVSMLGSVCSGNQ | 3.22 ± 0.1
35 | AEWLINGISDGLDCVSFSNS | inactive
36 | SWTCHSFYFSDSFRHGYR | 2.63 ± 0.069
37 | LFFTKGKLFNEAI | inactive
38 | CYLGVKCVLGWQSWRVVYSN | inactive
39 | RIVVYMSLCQCL | 8.609 ± 0.076
40 | ALDFSRSRDKGG | 1.42 ± 0.23
41 | LSFIFL | 4.256 ± 0.031
42 | CQAYSSIRFEVL | inactive
43 | VLNVNDFPNYGRRSCSTNSF | 3.18 ± 0.17
44 | WLNYLGFISFRICH | -1.66 ± 0.41

Row | Substance | amyloid nucleation score
45 | CIVAFEFLYWCRRIAFNPGG | -0.475 ± 0.31
46 | AETTFNIENDKTYIIYDCAE | -0.161 ± 0.39
47 | DFANFMGCMVNEAPRLHFAL | 0.404 ± 0.38
48 | AKPRYN | 0.221 ± 0.42
49 | SVYDPAYVLNMNTLSTSSNL | 0.451 ± 0.33
50 | FPYIFIWFYGSVGLWRRETL | 0.127 ± 0.79
51 | IAYATPPSHGAC | 1.32 ± 0.15
52 | IMMQDWGIGFAFIGSPCRCD | 9.01 ± 0.048
53 | CGYLSNRSDNRCDLLYACFR | 0.571 ± 0.36
54 | FIVRSLRSSHTKTVPLPACC | inactive
55 | VLISVIWLRGRKLSVGWKKD | 0.593 ± 0.53
56 | SLPSRYWVSLFCTSLLW | 0.743 ± 0.81
57 | MFKQFVSLLHQGLFLSLSFD | -0.01 ± 0.6
58 | SKFLM | -1.14 ± 0.48
59 | TYCFLGFQNIPSMLNPMNFG | 2.98 ± 0.046
60 | RPNSSIVLLYPFKMRPFES | inactive
61 | IGLDRWLMSLRRYAMHK | -0.089 ± 0.18
62 | YNMGNSGLGGTRWEIICFAI | -1.02 ± 0.5
63 | RRVGRYESWRNFSNEI | -0.835 ± 0.27
64 | SHFCN | 0.859 ± 0.43
65 | MCPLT | 0.638 ± 0.17
66 | NAVFVFSRWWYISNVVPQK | -1.48 ± 1.1

Row | Substance | amyloid nucleation score
67 | HVSKAVNLG | 0.52 ± 0.56
68 | DVLALFYSYCALN | 0.049 ± 1.1
69 | RERDNVMDIVGSAMRDCCQF | 0.282 ± 0.25
70 | MICHMFMG | inactive
71 | VTFYGGAYSENYLVRCYALN | 4.47 ± 0.057
72 | PCGNPLQRYS | 1.62 ± 0.4
73 | KSPNHSDRVQWMKYTFWYTL | -0.003 ± 1.1
74 | DDFRGIAGIWWRG | 0.785 ± 0.51
75 | ILNNMIL | 2.55 ± 0.21
76 | ASAVV | 0.402 ± 0.26
77 | WDALGNVRRAMWVPS | 0.048 ± 0.41
78 | VFFSESERYSGVKLGAVEDT | 0.189 ± 0.49
79 | YIPLVVLHFSVRVWELSYWS | 0.115 ± 1
80 | SQSMNGRQMHLYDRPSTGWF | inactive
81 | CPRPTCAPHCWYFVLAMVAR | -0.4 ± 0.64
82 | TNHFN | -1.08 ± 0.61
83 | SHMSHYRNSSTDFAA | -0.745 ± 0.42
84 | AMQLCSFTPFSTYNFLSYDS | -0.685 ± 0.37
85 | HTKMTIWNVVQC | -0.517 ± 0.63
